The IC50 is the concentration needed to halve the response being measured. A lower IC50 goes with inhibition by little substance. The Ki is the dissociation constant of the complex between target and ligand, obtained from inhibition or displacement.

The chains are these.
B1: SEQ ID NO 850 (peptide)
peptide: Ac-WVTHRLAGLAS[Cit]SGGVVRKNFVPTDVGPFAF-NH2
SMILES: CC(=O)N[C@@H](Cc1c[nH]c2ccccc12)C(=O)N[C@H](C(=O)N[C@H](C(=O)N[C@@H](Cc1c[nH]cn1)C(=O)N[C@@H](CCCNC(=N)N)C(=O)N[C@@H](CC(C)C)C(=O)N[C@@H](C)C(=O)NCC(=O)N[C@@H](CC(C)C)C(=O)N[C@@H](C)C(=O)N[C@@H](CO)C(=O)N[C@@H](CCCNC(N)=O)C(=O)N[C@@H](CO)C(=O)NCC(=O)NCC(=O)N[C@H](C(=O)N[C@H](C(=O)N[C@@H](CCCNC(=N)N)C(=O)N[C@@H](CCCCN)C(=O)N[C@@H](CC(N)=O)C(=O)N[C@@H](Cc1ccccc1)C(=O)N[C@H](C(=O)N1CCC[C@H]1C(=O)N[C@H](C(=O)N[C@@H](CC(=O)O)C(=O)N[C@H](C(=O)NCC(=O)N1CCC[C@H]1C(=O)N[C@@H](Cc1ccccc1)C(=O)N[C@@H](C)C(=O)N[C@@H](Cc1ccccc1)C(N)=O)C(C)C)[C@@H](C)O)C(C)C)C(C)C)C(C)C)[C@@H](C)O)C(C)C
B2: SEQ ID NO 701 (peptide)
peptide: [1Nal]VTHRLAGLLSRSGGVVKNNFVPTDVGPFAF-NH2
modifications: N-terminus assumed
SMILES: CC(C)C[C@H](NC(=O)CNC(=O)[C@H](C)NC(=O)[C@H](CC(C)C)NC(=O)[C@H](CCCNC(=N)N)NC(=O)[C@H](Cc1c[nH]cn1)NC(=O)[C@@H](NC(=O)[C@@H](NC(=O)[C@@H](N)Cc1cccc2ccccc12)C(C)C)[C@@H](C)O)C(=O)N[C@@H](CC(C)C)C(=O)N[C@@H](CO)C(=O)N[C@@H](CCCNC(=N)N)C(=O)N[C@@H](CO)C(=O)NCC(=O)NCC(=O)N[C@H](C(=O)N[C@H](C(=O)N[C@@H](CCCCN)C(=O)N[C@@H](CC(N)=O)C(=O)N[C@@H](CC(N)=O)C(=O)N[C@@H](Cc1ccccc1)C(=O)N[C@H](C(=O)N1CCC[C@H]1C(=O)N[C@H](C(=O)N[C@@H](CC(=O)O)C(=O)N[C@H](C(=O)NCC(=O)N1CCC[C@H]1C(=O)N[C@@H](Cc1ccccc1)C(=O)N[C@@H](C)C(=O)N[C@@H](Cc1ccccc1)C(N)=O)C(C)C)[C@@H](C)O)C(C)C)C(C)C)C(C)C
B3: SEQ ID NO 231 (peptide)
peptide: Ac-WVTHRLAGLLSRSGGVVKCNFVPTDVGPFAF-NH2
modifications: not fully specified (residue 19); printed as Ac-WVTHRLAGLLSRSGGVVKC^(20 kDa PEG)NFVPTDVGPFAF-amide
B4: SEQ ID NO 681 (peptide)
peptide: Ac-WVTHRLAGLLSRSGGVVRCNFVPTDVGPFAF-NH2
modifications: not fully specified (residue 19); printed as Ac-WVTHRLAGLLSRSGGVVRC^(20 kDa PEG)NFVPTDVGPFAF-amide
B5: SEQ ID NO 683 (peptide)
peptide: Ac-WVTHRLAGLLSRSGGVVCNNFVPTDVGPFAF-NH2
modifications: not fully specified (residue 18); printed as Ac-WVTHRLAGLLSRSGGVVC^(20 kDa PEG)NNFVPTDVGPFAF-amide
B6: SEQ ID NO 700 (peptide)
peptide: Bn-VTHRLAGLLSRSGGVVKNNFVPTDVGPFAF-NH2
SMILES: CC(C)C[C@H](NC(=O)CNC(=O)[C@H](C)NC(=O)[C@H](CC(C)C)NC(=O)[C@H](CCCNC(=N)N)NC(=O)[C@H](Cc1c[nH]cn1)NC(=O)[C@@H](NC(=O)[C@@H](NCc1ccccc1)C(C)C)[C@@H](C)O)C(=O)N[C@@H](CC(C)C)C(=O)N[C@@H](CO)C(=O)N[C@@H](CCCNC(=N)N)C(=O)N[C@@H](CO)C(=O)NCC(=O)NCC(=O)N[C@H](C(=O)N[C@H](C(=O)N[C@@H](CCCCN)C(=O)N[C@@H](CC(N)=O)C(=O)N[C@@H](CC(N)=O)C(=O)N[C@@H](Cc1ccccc1)C(=O)N[C@H](C(=O)N1CCC[C@H]1C(=O)N[C@H](C(=O)N[C@@H](CC(=O)O)C(=O)N[C@H](C(=O)NCC(=O)N1CCC[C@H]1C(=O)N[C@@H](Cc1ccccc1)C(=O)N[C@@H](C)C(=O)N[C@@H](Cc1ccccc1)C(N)=O)C(C)C)[C@@H](C)O)C(C)C)C(C)C)C(C)C

Square brackets hold non-standard residues; d marks the D form. Ends that are not written are not given here. * marks the point of attachment. 20 kDa MeO‑PEG = methoxy-polyethylene glycol of 20 kDa conjugated to the residue side chain; Bn2 = Nα,Nα-dibenzyl on N-terminal residue; 1Nal = N[C@@H](Cc1cccc2ccccc12)C(=O)O; Cit = NC(=O)NCCC[C@H](N)C(=O)O; Bn = c1ccc(C*)cc1

The target of one experiment is T1, CGRP1 receptor (CRLR/RAMP1 complex) of human neuroblastoma SK-N-MC cells (human, UniProt Q16602 23-461; O60894 27-148). Put plainly: cell-based or functional assay.
T1 sequence (Q16602 23-461, chain 1 of 2): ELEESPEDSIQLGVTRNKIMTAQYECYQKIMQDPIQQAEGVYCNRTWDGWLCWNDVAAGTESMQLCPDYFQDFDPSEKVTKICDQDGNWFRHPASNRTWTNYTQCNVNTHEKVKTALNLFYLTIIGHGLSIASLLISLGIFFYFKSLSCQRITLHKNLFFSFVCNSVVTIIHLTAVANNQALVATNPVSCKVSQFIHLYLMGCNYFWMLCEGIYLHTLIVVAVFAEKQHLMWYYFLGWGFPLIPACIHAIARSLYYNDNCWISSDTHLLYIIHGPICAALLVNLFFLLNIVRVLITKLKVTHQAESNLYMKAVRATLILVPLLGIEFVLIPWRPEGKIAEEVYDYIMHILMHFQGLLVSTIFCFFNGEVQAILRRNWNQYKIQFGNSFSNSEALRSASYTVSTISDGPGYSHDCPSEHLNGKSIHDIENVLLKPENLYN
T1 sequence (O60894 27-148, chain 2 of 2): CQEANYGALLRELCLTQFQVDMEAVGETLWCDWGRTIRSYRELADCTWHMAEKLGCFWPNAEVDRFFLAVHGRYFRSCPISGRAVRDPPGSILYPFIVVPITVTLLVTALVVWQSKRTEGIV
In the case of Ac-WVTHRLAGLLSRSGGVKRNNFVPTDVGPFAF-NH2 [SEQ ID NO 823], the “IC50” value was 0.51 nM. The same measure, in the same setting: for Ac-WVTHRLAGLLSRSGGVC(20 kDa MeO‑PEG)RNNFVPTDVGPFAF-NH2 [SEQ ID NO 821] the value was 0.16 nM; for Ac-WVTHRLAGLAS[Cit]SGGVVRK(MeO‑PEG 20 kDa)NFVPTDVGPFAF-NH2 [SEQ ID NO 851], 228 nM; for Ac-WVTHRLAGLLSRPGGVVRKNFVPTDVGPFAF-NH2 [SEQ ID NO 854], 1.27 nM. On the same count and under the same terms, for B1 the value was 1.85 nM. As to Ac-WVTHRLAGLLSRSGGVK(20 kDa MeO‑PEG)RNNFVPTDVGPFAF-NH2 [SEQ ID NO 824], the “IC50” value was determined as 0.98 nM. Regarding Ac-WVTH[Cit]LAGLAS[Cit]SGGVVRK(20 kDa MeO‑PEG)NFVPTDVGPFAF-NH2 [SEQ ID NO 853], the “IC50” value is more than 1000 nM. As to Ac-WVTH[Cit]LAGLAS[Cit]SGGVVRKNFVPTDVGPFAF-NH2 [SEQ ID NO 852], the “IC50” value worked out at 23.4 nM. The same measure, in the same setting: for Ac-WVTHRLAGLLSRPGGVVRK(20 kDa MeO‑PEG)NFVPTDVGPFAF-NH2 [SEQ ID NO 855] the value was 18 nM.

The next experiment deals with T1, CGRP1 receptor (CRLR/RAMP1 complex) of …. Put plainly: 125I-hαCGRP competition, SK-N-MC membranes. On the procedure:
CGRP₁ binding experiments. […] The plates were incubated at room temperature for 2 hour with shaking at 60 rpm, then the contents of each well were filtered over 0.5% polyethyleneimine (PEI)-treated (at least one hour) GF/C 96-well filter plates. The GF/C filter plates were washed 6 times with ice-cold 50 mM Tris, pH 7.5 and dried in an oven at 55 C for 1 hour. The bottoms of the GF/C plates were then sealed, and 40 μl Microscint™ 20 was added to each well, then the tops of the GF/C plates were sealed with TopSeal™-A, a press-on adhesive sealing film, and the GF/C plates were counted with TopCount NXT (Packard). The data were analyzed by using ActivityBase (IDBS) or Prizm (GraphPad) software.
With C(MeO‑PEG 5 kDa)GGGGGGGVTHRLAGLLSRSGGVVKNNFVPTNVGSKAF-NH2 [SEQ ID NO 690], the Ki amounted to 3070 nM. Still for that read-out and setting: for CGGGGGGGVTHRLAGLLSRSGGVVKNNFVPTDVGPFAF-NH2 (not fully specified (residue 1)) [SEQ ID NO 692] the value was 20.8 nM; for VTHRLAGLLSRSGGVVKCNFVPTNVGSKAF (VTHRLAGLLSRSGGVVKC^(5 kDa MeO-PEG)NFVPTNVGSKAF-amide) [SEQ ID NO 693], 17.5 nM; for VTHRLAGLLSRSGGVVC(MeO‑PEG 5 kDa)NNFVPTNVGSKAF-NH2 [SEQ ID NO 691], 157 nM. The same measure, in the same setting: for WVTHRLAGLLSRSGGVVKC(MeO‑PEG 5 kDa)NFVPTDVGPFAF-NH2 [SEQ ID NO 696] the value was 0.21 nM; for WVTHRLAGLLSRSGGVVKCNFVPTDVGPFAF-NH2 [SEQ ID NO 689], 0.95 nM; for Bn2-VTHRLAGLLSRSGGVVKNNFVPTDVGPFAF-NH2 [SEQ ID NO 702], 0.23 nM.

The molecule C(MeO‑PEG 5 kDa)GGGGGGGWVTHRLAGLLSRSGGVVKNNFVPTDVGPFAF-NH2 [SEQ ID NO 697] came in with a Ki of 5.74 nM. Compared with the last molecule, the Ki is about 25-fold higher.

Ac-VTHRLAGLLSRSGGVVRK(PEG 5 kDa)NFVPTDVGPFAF-NH2 [SEQ ID NO 229] yielded a Ki of 0.06 nM. Still for that read-out and setting: for Ac-VTHRLAGLLSRSGGVVRK(20 kDa PEG)NFVPTDVGPFAF-NH2 [SEQ ID NO 230] the value was 0.17 nM; for B2, 0.14 nM. The same measure, in the same setting: for WVTHXLAGLLSXSGGVVXKNFVPTDVGXFAF (Ac-WVTH[Cit]LAGLLS[Cit]SGGVV[hArg]K(20 KPEGald)NFVPTDVG[Oic]FAF-NH2) [SEQ ID NO 172] the value was 1.27 nM; for WVTHXLAGLLSXSGGVVXKNFVPTDVGPXAF (Ac-WVTH[Cit]LAGLLS[Cit]SGGVV[hArg]KNFVPTDVGP[1-Nal]AF-NH2) [SEQ ID NO 674], 0.64 nM.

In the case of B3, the Ki worked out at 0.27 nM. The same measure, in the same setting: the result for Ac-WVTHRLAGLLSRSGGVVCNNFVPTDVGPFAF-NH2 [SEQ ID NO 682] reads 0.34 nM. Same read-out and setting: the result for B4 reads 0.6 nM; that for B5, 1.58 nM; that for Ac-WVTHRLAGLLSRSGGVVKNNFVPTDVGPFAF-NH2 [SEQ ID NO 684], 0.08 nM.

The molecule WVTHRLAGLLSRSGGVVKCNFVPTNVGSKAF (WVTHRLAGLLSRSGGVVKC^(5 kDa MeO-PEG)NFVPTNVGSKAF-amide) [SEQ ID NO 695] came in with a Ki of 5.44 nM. Still for that read-out and setting: the result for Ac-WVTHRLAGLLSRSGGVVRCNFVPTDVGPFAF-NH2 [SEQ ID NO 680] reads 0.58 nM.

With Ac-WVTHRLAGLLSRSGGVVKC(PEG 30 kDa)NFVPTDVGPFAF-NH2 [SEQ ID NO 232], affinity was put at a Ki of 0.27 nM. Against the preceding molecule, the Ki is about 2.1-fold lower. With B6, the Ki turned out to be 0.22 nM. Same read-out and setting: for VTHRLAGLLSRSGGVVKCNFVPTNVGSKAF (VTHRLAGLLSRSGGVVKC^(5 kDa MeO-PEG)NFVPTNVGSKAF-amide) [SEQ ID NO 694] the value was 31.8 nM.

(Values after US20080020978A1 (Amgen, published 2008).)
